Consider two substances from article PMC11006394.

Test [1] has as its target Cno DIL domain (aa 613–1006) (Drosophila) (UniProt Q24279). Put plainly: SEC-MALS; Superdex 200, 0.5 ml/min; for the DIL domain: 100 ul at 5.0 mg/ml injected, 300 mM NaCl, 25 mM Tris-HCl pH 8.5, 1 mM MgCl2, 0.1% beta-mercaptoethanol, 0.2 g/l sodium azide; monomer and homodimer peaks; conditions for FHA-DIL-PDZ not given.
The target in test [2] is Cno FHA-DIL-PDZ protein (aa 372–1110) (Drosophila) (UniProt Q24279). The description is as above.

The term stoichiometry N denotes a count of units in the complex or per binding partner. In test [1], “Cno DIL domain (aa 613–1006) (from UniProt Q24279 613-1006) (domain or fragment)” came in with a percent of injected protein eluted as homodimer of 27% and a stoichiometry N of 2.

In test [2], “Cno FHA-DIL-PDZ protein (aa 372–1110) (from UniProt Q24279 372-1110) (domain or fragment)” yielded a percent of injected protein eluted as homodimer of 7% and a stoichiometry N of 2.
